# IntAct's records for PubMed 25416956
# B1: Keratin, type II cytoskeletal 6A (Homo sapiens), P02538 (parent)
# chain: MASTSTTIRSHSSSRRGFSANSARLPGVSRSGFSSVSVSRSRGSGGLGGACGGAGFGSRSLYGLGGSKRISIGGGSCAISGGYGSRAGGSYGFGGAGSGFGFGGGAGIGFGLGGGAGLAGGFGGPGFPVCPPGGIQEVTVNQSLLTPLNLQIDPTIQRVRAEEREQIKTLNNKFASFIDKVRFLEQQNKVLETKWTLLQEQGTKTVRQNLEPLFEQYINNLRRQLDSIVGERGRLDSELRGMQDLVEDFKNKYEDEINKRTAAENEFVTLKKDVDAAYMNKVELQAKADTLTDEINFLRALYDAELSQMQTHISDTSVVLSMDNNRNLDLDSIIAEVKAQYEEIAQRSRAEAESWYQTKYEELQVTAGRHGDDLRNTKQEIAEINRMIQRLRSEIDHVKKQCANLQAAIADAEQRGEMALKDAKNKLEGLEDALQKAKQDLARLLKEYQELMNVKLALDVEIATYRKLLEGEECRLNGEGVGQVNISVVQSTVSSGYGGASGVGSGLGLGGGSSYSYGSGLGVGGGFSSSSGRAIGGGLSSVGGGSSTIKYTTTSSSSRKSYKH
# partner: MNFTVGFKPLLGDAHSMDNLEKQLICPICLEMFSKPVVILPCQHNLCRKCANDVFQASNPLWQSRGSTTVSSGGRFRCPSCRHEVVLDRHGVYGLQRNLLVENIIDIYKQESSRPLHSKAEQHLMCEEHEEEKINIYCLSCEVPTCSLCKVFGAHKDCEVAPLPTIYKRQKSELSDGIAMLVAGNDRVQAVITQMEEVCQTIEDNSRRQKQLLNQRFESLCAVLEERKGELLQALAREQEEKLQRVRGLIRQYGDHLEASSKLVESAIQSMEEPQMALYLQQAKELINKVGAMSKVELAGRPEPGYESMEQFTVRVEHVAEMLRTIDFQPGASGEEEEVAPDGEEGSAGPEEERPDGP
# B2: Lipopolysaccharide-induced tumor necrosis factor-alpha factor (Homo sapiens), Q99732 (parent)
# chain: MSVPGPYQAATGPSSAPSAPPSYEETVAVNSYYPTPPAPMPGPTTGLVTGPDGKGMNPPSYYTQPAPIPNNNPITVQTVYVQHPITFLDRPIQMCCPSCNKMIVSQLSYNAGALTWLSCGSLCLLGCIAGCCFIPFCVDALQDVDHYCPNCRALLGTYKRL
# partner: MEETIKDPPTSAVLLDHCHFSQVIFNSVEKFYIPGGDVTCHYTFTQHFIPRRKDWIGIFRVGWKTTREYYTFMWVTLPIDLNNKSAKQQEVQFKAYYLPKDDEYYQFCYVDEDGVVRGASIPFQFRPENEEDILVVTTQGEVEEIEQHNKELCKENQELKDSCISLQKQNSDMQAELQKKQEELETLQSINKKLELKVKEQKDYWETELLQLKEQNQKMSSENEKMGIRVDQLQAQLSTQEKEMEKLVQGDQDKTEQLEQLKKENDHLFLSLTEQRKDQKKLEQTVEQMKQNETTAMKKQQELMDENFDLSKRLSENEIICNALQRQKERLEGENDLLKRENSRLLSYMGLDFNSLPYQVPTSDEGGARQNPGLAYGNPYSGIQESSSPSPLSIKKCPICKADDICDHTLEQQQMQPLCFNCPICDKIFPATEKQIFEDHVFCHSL
# B3: EF-hand domain-containing protein 1 (Homo sapiens), Q5JVL4 (parent)
# chain: MVSNPVHGLPFLPGTSFKDSTKTAFHRSQTLSYRNGYAIVRRPTVGIGGDRLQFNQLSQAELDELASKAPVLTYGQPKQAPPADFIPAHVAFDKKVLKFDAYFQEDVPMSTEEQYRIRQVNIYYYLEDDSMSVIEPVVENSGILQGKLIKRQRLAKNDRGDHYHWKDLNRGINITIYGKTFRVVDCDQFTQVFLESQGIELNPPEKMALDPYTELRKQPLRKYVTPSDFDQLKQFLTFDKQVLRFYAIWDDTDSMYGECRTYIIHYYLMDDTVEIREVHERNDGRDPFPLLMNRQRVPKVLVENAKNFPQCVLEISDQEVLEWYTAKDFIVGKSLTILGRTFFIYDCDPFTRRYYKEKFGITDLPRIDVSKREPPPVKQELPPYNGFGLVEDSAQNCFALIPKAPKKDVIKMLVNDNKVLRYLAVLESPIPEDKDRRFVFSYFLATDMISIFEPPVRNSGIIGGKYLGRTKVVKPYSTVDNPVYYGPSDFFIGAVIEVFGHRFIILDTDEYVLKYMESNAAQYSPEALASIQNHVRKREAPAPEAESKQTEKDPGVQELEALIDTIQKQLKDHSCKDNIREAFQIYDKEASGYVDRDMFFKICESLNVPVDDSLVKELIRMCSHGEGKINYYNFVRAFSN
# partner: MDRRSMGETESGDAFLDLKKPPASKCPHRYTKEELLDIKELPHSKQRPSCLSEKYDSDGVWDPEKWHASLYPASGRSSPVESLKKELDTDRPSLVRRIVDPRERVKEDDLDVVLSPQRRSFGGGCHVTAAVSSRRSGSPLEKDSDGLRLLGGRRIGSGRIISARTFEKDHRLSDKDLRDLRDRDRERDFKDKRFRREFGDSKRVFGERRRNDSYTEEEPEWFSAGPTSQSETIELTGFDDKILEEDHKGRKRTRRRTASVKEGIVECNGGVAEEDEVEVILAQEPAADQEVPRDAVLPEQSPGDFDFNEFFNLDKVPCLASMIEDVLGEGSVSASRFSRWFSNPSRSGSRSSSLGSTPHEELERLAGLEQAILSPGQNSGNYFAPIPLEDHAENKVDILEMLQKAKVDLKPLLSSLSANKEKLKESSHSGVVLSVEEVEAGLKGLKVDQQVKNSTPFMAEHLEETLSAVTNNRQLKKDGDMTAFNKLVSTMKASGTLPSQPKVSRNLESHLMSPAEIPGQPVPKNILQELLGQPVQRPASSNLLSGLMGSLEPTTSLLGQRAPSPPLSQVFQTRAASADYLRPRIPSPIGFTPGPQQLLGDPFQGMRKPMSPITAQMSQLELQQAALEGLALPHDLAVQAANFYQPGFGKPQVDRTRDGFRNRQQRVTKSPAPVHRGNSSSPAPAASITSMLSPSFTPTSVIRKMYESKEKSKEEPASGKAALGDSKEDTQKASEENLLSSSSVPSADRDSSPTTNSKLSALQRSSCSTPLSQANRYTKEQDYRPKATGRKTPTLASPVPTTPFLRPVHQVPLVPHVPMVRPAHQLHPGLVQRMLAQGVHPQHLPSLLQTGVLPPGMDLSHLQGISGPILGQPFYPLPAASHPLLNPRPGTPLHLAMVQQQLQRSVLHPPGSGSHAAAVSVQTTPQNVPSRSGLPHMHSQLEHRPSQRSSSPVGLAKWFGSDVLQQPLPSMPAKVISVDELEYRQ
# B4: Inactive peptidyl-prolyl cis-trans isomerase FKBP6 (Homo sapiens), O75344 (parent)
# chain: MGGSALNQGVLEGDDAPGQSLYERLSQRMLDISGDRGVLKDVIREGAGDLVAPDASVLVKYSGYLEHMDRPFDSNYFRKTPRLMKLGEDITLWGMELGLLSMRRGELARFLFKPNYAYGTLGCPPLIPPNTTVLFEIELLDFLDCAESDKFCALSAEQQDQFPLQKVLKVAATEREFGNYLFRQNRFYDAKVRYKRALLLLRRRSAPPEEQHLVEAAKLPVLLNLSFTYLKLDRPTIALCYGEQALIIDQKNAKALFRCGQACLLLTEYQKARDFLVRAQKEQPFNHDINNELKKLASCYRDYVDKEKEMWHRMFAPCGDGSTAGES
# partner: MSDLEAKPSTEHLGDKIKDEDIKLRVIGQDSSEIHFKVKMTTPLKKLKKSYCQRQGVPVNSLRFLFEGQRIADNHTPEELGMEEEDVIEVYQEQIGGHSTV
# B5: Chorion-specific transcription factor GCMb (Homo sapiens), O75603 (parent)
# chain: MPAAAVQEAVGVCSYGMQLSWDINDPQMPQELALFDQFREWPDGYVRFIYSSDEKKAQRHLSGWAMRNTNNHNGHILKKSCLGVVVCTQACTLPDGSRLQLRPAICDKARLKQQKKACPNCHSALELIPCRGHSGYPVTNFWRLDGNAIFFQAKGVHDHPRPESKSETEARRSAIKRQMASFYQPQKKRIRESEAEENQDSSGHFSNIPPLENPEDFDIVTETSFPIPGQPCPSFPKSDVYKATCDLATFQGDKMPPFQKYSSPRIYLPRPPCSYELANPGYTNSSPYPTLYKDSTSIPNDTDWVHLNTLQCNVNSYSSYERSFDFTNKQHGWKPALGKPSLVERTNHGQFQAMATRPYYNPELPCRYLTTPPPGAPALQTVITTTTKVSYQAYQPPAMKYSDSVREVKSLSSCNYAPEDTGMSVYPEPWGPPVTVTRAASPSGPPPMKIAGDCRAIRPTVAIPHEPVSSRTDEAETWDVCLSGLGSAVSYSDRVGPFFTYNNEDF
# partner: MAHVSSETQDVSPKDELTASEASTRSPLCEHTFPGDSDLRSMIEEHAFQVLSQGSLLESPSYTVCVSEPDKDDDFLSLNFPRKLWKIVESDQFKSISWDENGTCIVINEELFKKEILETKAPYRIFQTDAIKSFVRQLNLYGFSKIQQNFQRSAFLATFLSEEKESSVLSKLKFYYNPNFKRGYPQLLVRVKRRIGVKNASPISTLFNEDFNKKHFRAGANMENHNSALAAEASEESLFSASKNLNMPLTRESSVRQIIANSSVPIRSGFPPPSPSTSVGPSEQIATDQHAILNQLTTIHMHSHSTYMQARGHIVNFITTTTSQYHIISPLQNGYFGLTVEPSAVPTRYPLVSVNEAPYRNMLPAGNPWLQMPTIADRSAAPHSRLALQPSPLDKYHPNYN
# Variants of: B1
# Conditions: with tri54_human TRIM54, Q9BYV2
row,Variant,effect of a mutation on the interaction
1,A463P,disrupting interaction

# Variants of: B2
# Conditions: with caco2_human CALCOCO2, Q13137
row,Variant,effect of a mutation on the interaction
1,G112S,disrupting interaction

# Variants of: B2
# Conditions: with caco2_human CALCOCO2, Q13137
# Remark: another data set of the same source
row,Variant,effect of a mutation on the interaction
1,A111G,disrupting interaction

# Variants of: B3
# Conditions: with 4et_human EIF4ENIF1, Q9NRA8
row,Variant,effect of a mutation on the interaction
1,P77T,disrupting interaction

# Variants of: B3
# Conditions: with 4et_human EIF4ENIF1, Q9NRA8
# Remark: another data set of the same source
row,Variant,effect of a mutation on the interaction
1,T508R,disrupting interaction

# Variants of: B3
# Conditions: with 4et_human EIF4ENIF1, Q9NRA8
# Remark: another data set of the same source
row,Variant,effect of a mutation on the interaction
1,A394S,disrupting interaction

# Variants of: B3
# Conditions: with 4et_human EIF4ENIF1, Q9NRA8
# Remark: another data set of the same source
row,Variant,effect of a mutation on the interaction
1,R221H,disrupting interaction

# Variants of: B4
# Conditions: with sumo5_human SUMO1P1, G2XKQ0
row,Variant,effect of a mutation on the interaction
1,F72L,disrupting interaction

# Variants of: B5
# Conditions: with hsfy1_human HSFY1, Q96LI6
row,Variant,effect of a mutation on the interaction
1,R47L,disrupting interaction
